# From EP1143253A1
# Columns and labels:
# [1] = molecular target: human p97 (melanotransferrin), GPI-anchored membrane form (human) (UniProt P08582); assay: FACS on SK-MEL-28 cells; L235 hybridoma supernatant, goat anti-mouse IgG-FITC
# [2] = molecular target: human p97 (melanotransferrin), GPI-anchored membrane form (human) (UniProt P08582); assay: FACS, L235 on p97aWTBc7 cells after PI-PLC treatment, against untreated stained cells
# [3] = molecular target: human p97 (melanotransferrin), GPI-anchored membrane form (human) (UniProt P08582); assay: FACS, L235 on SK-MEL-28 cells after PI-PLC treatment, against untreated stained cells
# [4] = molecular target: human p97 (melanotransferrin), GPI-anchored membrane form (human) (UniProt P08582); assay: FACS, L235 on p97aWTBc3 cells after PI-PLC treatment, against untreated stained cells
# [5] = molecular target: human p97 (melanotransferrin), GPI-anchored membrane form (human) (UniProt P08582); assay: FACS on SK-MEL-28 cells pre-incubated with PI-PLC (60 min, 37 C), which removes p97; L235 supernatant, goat anti-mouse IgG-FITC
# [6] = molecular target: human p97 (melanotransferrin), GPI-anchored membrane form (human) (UniProt P08582); assay: FACS on Sf9 cells infected with p97 B-1-1, pre-incubated with PI-PLC; L235 supernatant, goat anti-mouse IgG-FITC
# [7] = molecular target: human p97 (melanotransferrin), GPI-anchored membrane form (human) (UniProt P08582); assay: FACS, L235 on SK-MEL-28 cells after Pronase treatment, against untreated stained cells
# [8] = molecular target: human p97 (melanotransferrin), GPI-anchored membrane form (human) (UniProt P08582); assay: FACS on Sf9 cells infected with p97 recombinant baculovirus p97 B-2-1; L235 supernatant, goat anti-mouse IgG-FITC
# [9] = molecular target: human p97 (melanotransferrin), GPI-anchored membrane form (human) (UniProt P08582); assay: FACS on Sf9 cells infected with p97 recombinant baculovirus p97 B-1-1; L235 supernatant, goat anti-mouse IgG-FITC
# [10] = molecular target: human p97 (melanotransferrin), GPI-anchored membrane form (human) (UniProt P08582); assay: FACS on Sf9 cells infected with p97 B-2-1, pre-incubated with PI-PLC; L235 supernatant, goat anti-mouse IgG-FITC
# [11] = molecular target: human transferrin receptor, membrane form (human) (UniProt P02786); assay: FACS, OKT9 on SK-MEL-28 cells after PI-PLC treatment, against untreated stained cells
# Chain of UniProt P02786 (P02786 whole entry): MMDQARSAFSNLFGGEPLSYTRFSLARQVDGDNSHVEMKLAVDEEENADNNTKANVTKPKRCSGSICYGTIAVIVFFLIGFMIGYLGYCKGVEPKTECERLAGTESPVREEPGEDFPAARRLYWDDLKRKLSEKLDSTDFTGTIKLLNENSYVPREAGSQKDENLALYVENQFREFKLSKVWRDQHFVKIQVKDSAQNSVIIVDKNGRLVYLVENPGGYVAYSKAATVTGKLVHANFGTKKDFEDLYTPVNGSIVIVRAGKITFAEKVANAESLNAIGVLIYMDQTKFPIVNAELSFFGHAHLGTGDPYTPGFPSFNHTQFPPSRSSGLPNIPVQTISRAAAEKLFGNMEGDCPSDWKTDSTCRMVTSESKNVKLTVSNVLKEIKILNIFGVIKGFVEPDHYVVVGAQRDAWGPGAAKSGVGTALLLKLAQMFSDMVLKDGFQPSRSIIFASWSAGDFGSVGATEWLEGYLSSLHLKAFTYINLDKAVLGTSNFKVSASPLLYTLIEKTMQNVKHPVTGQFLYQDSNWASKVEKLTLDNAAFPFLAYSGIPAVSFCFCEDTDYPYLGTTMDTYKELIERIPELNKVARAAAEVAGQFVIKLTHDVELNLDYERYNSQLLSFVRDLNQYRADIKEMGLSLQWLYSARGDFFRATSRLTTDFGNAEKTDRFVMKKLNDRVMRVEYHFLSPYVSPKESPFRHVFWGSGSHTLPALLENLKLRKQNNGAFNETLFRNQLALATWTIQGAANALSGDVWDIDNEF
# [12] = molecular target: human transferrin receptor, membrane form (human) (UniProt P02786); assay: FACS, OKT9 on SK-MEL-28 cells after Pronase treatment, against untreated stained cells
# [13] = molecular target: Thy-1 on EL-4 mouse lymphoma cells (mouse) (UniProt P01831); assay: FACS, T24/37.1 on EL-4 cells after Pronase treatment, against untreated stained cells
# Chain of UniProt P01831 (P01831 20-131): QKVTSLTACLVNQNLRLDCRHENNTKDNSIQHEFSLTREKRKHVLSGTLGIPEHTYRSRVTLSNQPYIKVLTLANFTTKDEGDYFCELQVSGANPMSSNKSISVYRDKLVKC
# [14] = molecular target: Thy-1 on EL-4 mouse lymphoma cells (mouse) (UniProt P01831); assay: FACS, T24/37.1 on EL-4 cells after PI-PLC treatment, against untreated stained cells
# Chain of UniProt P08582 (P08582 20-709): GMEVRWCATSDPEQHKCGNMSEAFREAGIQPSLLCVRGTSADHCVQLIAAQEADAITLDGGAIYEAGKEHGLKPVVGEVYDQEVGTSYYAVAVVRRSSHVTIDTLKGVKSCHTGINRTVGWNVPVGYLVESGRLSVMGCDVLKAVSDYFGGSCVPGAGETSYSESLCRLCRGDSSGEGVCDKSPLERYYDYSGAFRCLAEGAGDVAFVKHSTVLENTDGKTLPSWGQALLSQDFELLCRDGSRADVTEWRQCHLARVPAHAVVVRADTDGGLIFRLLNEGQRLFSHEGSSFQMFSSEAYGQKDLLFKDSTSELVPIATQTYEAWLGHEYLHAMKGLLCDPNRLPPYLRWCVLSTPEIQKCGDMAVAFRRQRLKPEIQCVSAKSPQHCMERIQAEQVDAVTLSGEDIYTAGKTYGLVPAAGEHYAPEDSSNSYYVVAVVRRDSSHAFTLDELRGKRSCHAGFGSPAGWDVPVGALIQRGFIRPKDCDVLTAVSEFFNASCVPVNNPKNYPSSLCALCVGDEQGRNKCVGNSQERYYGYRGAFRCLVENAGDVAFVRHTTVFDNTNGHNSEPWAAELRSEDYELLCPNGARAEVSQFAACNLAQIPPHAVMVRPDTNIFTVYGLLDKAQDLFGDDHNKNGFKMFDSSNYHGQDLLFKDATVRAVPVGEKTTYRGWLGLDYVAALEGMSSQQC
substance,measurement,setting,value
L235 anti-human p97 monoclonal antibody,FLUORESCENCE - converted linear value (converted linear value),[1],128
same,Fluorescene Intensity (% of Control),[2],7.5 % of Control
same,Fluorescene Intensity (% of Control),[3],10.8 % of Control
same,Fluorescene Intensity (% of Control),[4],6.8 % of Control
same,FLUORESCENCE - converted linear value (converted linear value),[5],4.52
same,FLUORESCENCE - converted linear value (converted linear value),[6],5.74
same,Fluorescene Intensity (% of Control),[7],82.6 % of Control
same,FLUORESCENCE - converted linear value (converted linear value),[8],97.4
same,FLUORESCENCE - converted linear value (converted linear value),[9],112
same,FLUORESCENCE - converted linear value (converted linear value),[10],6.85
OKT9 anti-human transferrin receptor monoclonal antibody,Fluorescene Intensity (% of Control),[11],120 % of Control
same,Fluorescene Intensity (% of Control),[12],15.9 % of Control
T24/37.1 MAb (anti-Thy-1) (antibody),Fluorescene Intensity (% of Control),[13],136 % of Control
same,Fluorescene Intensity (% of Control),[14],32.5 % of Control
